Data set [1] deals with the molecule itself. The data set is described as follows: cryo-EM structure; Cas12f D510A with sgRNA (222 nt) and 60-bp target dsDNA (TTTA PAM), ratio 1:1.2:1.3, 37°C, purified by SEC in 25 mM Tris-HCl pH 7.6, 150 mM NaCl, 2 mM DTT, 1 mM MgCl2; 3.1 Å.
Data set [2] deals with the molecule itself. The data set is described as follows: cryo-EM structure; Cas12f with sgRNA, ratio 1:1.2, 37°C for 30 min in 25 mM Tris-HCl pH 7.6, 150 mM NaCl, 2 mM DTT, 1 mM MgCl2; no target DNA; 3.9 Å.
For data set [3], the target named is T1, Un1Cas12f1 D510A (Cas14a1; catalytically inactive) (UniProt A0A482D308 1-529, D510A).
T1 sequence: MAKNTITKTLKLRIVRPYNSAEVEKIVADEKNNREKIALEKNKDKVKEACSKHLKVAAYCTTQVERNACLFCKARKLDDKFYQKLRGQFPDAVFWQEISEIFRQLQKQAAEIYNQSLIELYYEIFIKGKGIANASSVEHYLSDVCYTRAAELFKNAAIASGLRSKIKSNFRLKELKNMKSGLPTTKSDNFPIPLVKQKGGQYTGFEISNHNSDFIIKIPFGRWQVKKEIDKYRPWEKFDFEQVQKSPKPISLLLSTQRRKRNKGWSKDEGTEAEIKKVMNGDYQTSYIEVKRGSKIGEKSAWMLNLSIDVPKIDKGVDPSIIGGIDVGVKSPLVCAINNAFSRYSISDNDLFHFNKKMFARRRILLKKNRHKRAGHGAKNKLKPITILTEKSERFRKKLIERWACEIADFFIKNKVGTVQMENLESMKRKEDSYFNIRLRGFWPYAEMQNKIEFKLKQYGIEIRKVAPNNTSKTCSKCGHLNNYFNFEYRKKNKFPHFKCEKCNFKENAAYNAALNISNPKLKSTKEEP
The data set is described as follows: cryo-EM (3.1 A); SEC; 1 mM Mg2+; Complex assembly in 25 mM Tris-HCl pH 7.6, 150 mM NaCl, 2 mM DTT, 1 mM MgCl2, 37 C 30 min; SEC in same buffer. The settings on record: protein: recombinant; tags: N-terminal 10xHis-MBP removed by TEV; chain copies: 2; sgRNA; target and non-target DNA strands blunt 60 bp; guide:target heteroduplex 19-20 bp.

The target in another data set is T2, Un1Cas12f1 (Cas14a1) (UniProt A0A482D308 1-529).
T2 sequence: T1 sequence with A510D
The data set is described as follows: cryo-EM (3.9 A); SEC; 1 mM Mg2+; no target DNA; Complex assembly in 25 mM Tris-HCl pH 7.6, 150 mM NaCl, 2 mM DTT, 1 mM MgCl2, 37 C 30 min; SEC in same buffer. To be noted: protein: recombinant; tags: N-terminal 10xHis-MBP removed by TEV; chain copies: 2; four stem-loops, two AR:R duplexes; 1 copy per Cas12f dimer.

Positions count from the first letter of the chain named. Names may count otherwise.

B1: Un1Cas12f1 D510A (inactive Cas12f mutant used for the Cas12f-sgRNA-target DNA ternary complex) (enzyme, UniProt A0A482D308 1-529, looked up)
chain: T1 sequence
notes: Cas12f (UnCas12f1 / Un1Cas12f1, also known as Cas14), full length, 529 amino acids, 61.5 kDa; plasmid Addgene #112500; catalytic D510 changed to alanine; three N-terminal and four C-terminal residues are not modelled; also called Cas12f D510A; Cas12f.2; source: E. coli BL21(DE3), purified (Ni-NTA, TEV cleavage, HiTrap SP, Superdex 200); not shown: 10xHis-MBP, N-terminal, cleaved
On to B1, for which the “stoichiometry N” value in data set [1] was found to be 2.

B2: Cas12f (UnCas12f1), used for the Cas12f-sgRNA binary complex (enzyme, UniProt A0A482D308 1-529, looked up)
chain: T1 sequence with A510D
notes: Cas12f (UnCas12f1 / Un1Cas12f1, also known as Cas14), full length, 529 amino acids; plasmid Addgene #112500; The methods say only 'Cas12f proteins' for the binary complex, set against 'Cas12f D510A mutant proteins' for the ternary complex; also called Un1Cas12f1; wild-type Cas12f; source: E. coli BL21(DE3), purified (Ni-NTA, TEV cleavage, HiTrap SP, Superdex 200); not shown: 10xHis-MBP, …
With B2, the binding result in data set [2] is listed as “binds”.

B3: sgRNA + 60-bp target dsDNA (TTTA PAM) (mixed)
RNA: CUUCACUGAUAAAGUGGAGAACCGCUUCACCAAAAGCUGUCCCUUAGGGGAUUAGAACUUGAGUGAAGGUGGGCUGCUUGCAUCAGCCUAAUGUCGAGAAGUGCUUUCUUCGGAAAGUAACCCUCGAAACAAAUUCAUUUUUCCUCUCCAAUUCUGCACAAGAAAGUUGCAGAACCCGAAUAGACGAAUGAAGGAAUGCAACAGUUGACCCAACGUCGCCGG
DNA 1: GCTGATGCATCTAGATTGTGCACGCCGGCGACGTTGGGTCAACTTAAATACGTAAGGTGC
DNA 2: GCACCTTACGTATTTAAGTTGACCCAACGTCGCCGGCGTGCACAATCTAGATGCATCAGC
B3: the binding result in data set [3] is “binds”.

B4: sgRNA (full length, 222 nt) (structured_RNA)
RNA: B3 RNA
Consider B4, for which the binding result with Un1Cas12f1 (Cas14a1) is “binds”.

The record behind these values is publication PMC8053092, “Structural basis for substrate recognition and cleavage by the dimerization-dependent CRISPR–Cas12f nuclease” (Nucleic Acids Research, 2020).
